How the values were obtained:
HLA-Cw*0102 = HLA-Cw*0102 (Homo sapiens, UniProt P10321, A176E/A330V/A35S/A97T/C350S/D114A/D33F/L171W/L180R/L218V/M285V/M309V/M331V/P208H/Q277E/Q291P/R121W/R243W/R30K/S123C/S140Y/S297R/T329A/T363A/V272M/V319A); assay: Peptide binding to HLA-Cw*0102 on L721.174 cells (cell surface MHC class I, flow cytometry); type: cell-based; settings: increasing concentrations of peptide, overnight at 26° C.
Experimental: (§1) The HLA-Cw*0102-positive cell line L721.174 was incubated with increasing concentrations of the LNPSVAATL (SEQ ID NO: 5) peptide or a control peptide VAPWNSLSL (SEQ ID NO: 11). Cells were stained for cell surface of MHC class I and analysed by flow cytometry. The mean fluorescence intensity of cell surface MHC Class I was plotted against the peptide concentration.
as §1, with “HLA-Cw*0102 • positive” for “HLA-Cw*0102-positive”, “peptides IVDLMCHATF” for “LNPSVAATL”, “1); VIDAMCHATL (SEQ ID NO: 2); AANVMAASL (SEQ ID NO: 3); and FLSDVPVATL (SEQ ID NO: 4)” for “5) peptide”, “[…].” for “VAPWNSLSL (SEQ ID NO: 11).”
3×10^5 cells were used per condition. Following washing in PBS the cells were stained for cell surface of MHC class I and analysed by flow cytometry. The mean fluorescence intensity of cell surface MHC Class I was plotted against the peptide concentration.
With reference to FIG. 12, the HLA-Cw*0102-positive cell line L721.174 was incubated with increasing concentrations of the peptides IVDLMCHATF (SEQ ID NO: 1), VIDAMCHATL (SEQ ID NO: 2), AANVMAASL (SEQ ID NO: 3); and FLSDVPVATL (SEQ ID NO: 4) overnight at 26° C. 3×10^5 cells were used per condition. Following washing in PBS the cells were stained for cell surface of MHC class I and analysed by flow cytometry. The mean fluorescence intensity of cell surface MHC Class I was plotted against the peptide concentration.

KIR2DS2 = target: T1, KIR2DS2 (Homo sapiens, UniProt P43631); assay: KIR2DS2 tetramer (KIR2DS2-PE) staining of peptide-loaded L721.174 cells; type: binding; settings: L721.174 cells incubated overnight at 26° C. with peptide, flow cytometry
T1 construct: made in house
Experimental: A. The KIR2DS2 protein was expressed with a biotinylation C-terminal tag. Following biotinylation with the BirA enzyme, the KIR2DS2 protein was incubated with streptavidin-phycoerythrin to form fluorescent KIR2DS2-tetramers (KIR2DS2-PE). L721.174 cells were then incubated with indicated peptides. Cells were then stained with KIR2DS2-PE and analysed by flow cytometry. Shown are histogram plots. The bold numbers represent the mean fluorescent staining intensity of the KIR2DS2-PE staining of the cells in the presence of peptide and the non-bold numbers the staining in the absence of peptide. B. Represents the mean and standard error fluorescent intensities of the experiment in “A” following replicate experiments.
A. L721.174 cells were incubated with indicated peptides. Cells were then stained with KIR2DS2-PE (see FIG. 4) and analysed by flow cytometry. Shown are histogram plots. The bold numbers represent the mean fluorescent staining intensity of the KIR2DS2-PE staining of the cells in the presence of peptide and the non-bold numbers the staining in the absence of peptide. B. Represents the mean and standard error fluorescent intensities of the experiment in “A” following replicate experiments.
FIG. 13—KIR2DS2 tetramer staining on 174 cells with and without peptides. Peptides tested include IVDLMCHATF (SEQ ID NO: 1); VIDAMCHATL (SEQ ID NO: 2); AANVMAASL (SEQ ID NO: 3); and FLSDVPVATL (SEQ ID NO: 4). A negative control peptide VAPWNSFAL (SEQ ID NO: 12) and positive control peptide LNPSVAATL (SEQ ID NO: 5) were included. The mean fluorescence intensity of the KIR2DS2 tetramer staining is shown in the right hand corner of the graph.
With reference to FIG. 4A, the KIR2DS2 protein was expressed as a recombinant protein with a biotinylation C-terminal tag. Following biotinylation with the BirA enzyme, the KIR2DS2 protein was incubated with streptavidin-phycoerythrin to form fluorescent KIR2DS2-tetramers (KIR2DS2-PE). 3×10^5 L721.174 cells were then incubated overnight at 26° C. with indicated peptides at a concentration of […]. Cells were then stained with KIR2DS2-PE and analysed by flow cytometry. Shown are histogram plots. The bold numbers represent the mean fluorescent staining intensity of the KIR2DS2-PE staining of the cells in the presence of peptide and the non-bold numbers the staining in the absence of peptide. With reference to FIG. 4B, panel B represents the mean and standard error fluorescent intensities of the experiment in “A” following replicate experiments.
With reference to FIG. 5A, 3×10^5 L721.174 cells were incubated overnight at 26° C. with indicated peptides at a concentration of 200 μM. Cells were then stained with KIR2DS2-PE (see FIG. 4) and analysed by flow cytometry. Shown are histogram plots. The bold numbers represent the mean fluorescent staining intensity of the KIR2DS2-PE staining of the cells in the presence of peptide and the non-bold numbers the staining in the absence of peptide. With reference to FIG. 5B, panel B represents the mean and standard error fluorescent intensities of the experiment in “A” following replicate experiments.
With reference to FIG. 13, the KIR2DS2 protein was expressed as a recombinant protein with a biotinylation C-terminal tag. Following biotinylation with the BirA enzyme, the KIR2DS2 protein was incubated with streptavidin-phycoerythrin to form fluorescent KIR2DS2-tetramers (KIR2DS2-PE). […] Cells were then stained with KIR2DS2-PE and analysed by flow cytometry. […]

[1] = tested on: KIR2DS2-positive NK cell clones; assay: Cytotoxicity of NK cell clones against peptide-loaded L721.174 cells (Live/Dead stain); type: cell-based; settings: KIR2DS2-positive clones 4, 6, 9 only (not KIR2DS2-negative clone 27); compared to no peptide or VAPWNSFAL
Experimental: (§2) L721.174 cells were incubated in the presence or absence of the peptides VAPWNSFAL (SEQ ID NO: 12) and the LNPSVAATL (SEQ ID NO: 5). The cells were then labeled with the cell tracker orange dye, and then cultured with KIR2DS2-positive NK cell clones (clones 4,6,9) or a KIR2DS2-negative NK cell clone (clone 27). Cytotoxicity was then determined using Live/Dead® fixable far-red stain.
as §2, with “With reference to FIG. 3, 3×10^5 L721.174” for “L721.174”, “incubated at 26° C. overnight” for “incubated”, “cultured for four hours” for “cultured”

T1 sequence (P43631 22-245 limits assumed): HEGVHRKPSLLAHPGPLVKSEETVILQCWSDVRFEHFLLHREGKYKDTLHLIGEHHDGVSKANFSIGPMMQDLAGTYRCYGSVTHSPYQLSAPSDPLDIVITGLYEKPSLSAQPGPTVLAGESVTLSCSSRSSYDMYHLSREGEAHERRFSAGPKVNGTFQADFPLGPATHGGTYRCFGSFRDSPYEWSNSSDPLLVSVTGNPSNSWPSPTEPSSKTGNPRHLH

Sequence: IVDLMCHATF [Dengue virus peptide]
- binding to HLA-Cw*0102 (mean fluorescence intensity of cell surface MHC Class I) (HLA-Cw*0102): bind HLA-Cw*0102
- KIR2DS2-PE tetramer binding to HLA-C*0102 and peptide (KIR2DS2): KIR2DS2 BINDS

Sequence: LNPSVAATL [peptide recognized by KIR2DS2-positive NK cells]
- binding to HLA-Cw*0102 (mean fluorescence intensity of cell surface MHC Class I) (HLA-Cw*0102): binds HLA-Cw*0102
- killing of L721.174 cell line [1]: killed the L721.174 cell line to greater extent
- KIR2DS2-PE tetramer binding to HLA-C*0102 and peptide (KIR2DS2): KIR2DS2 binds
